Measurements taken from article PMC10672034, “Characterization of a Type II L-Asparaginase from the Halotolerant Bacillus subtilis CH11” (Life, 2023).

Tests used:
[1] = biological target: L-ASNasaZP21 (N-terminally truncated type II L-asparaginase of Bacillus subtilis CH11) (Bacillus subtilis CH11) (UniProt O34482); assay: SEC; HiPrep 16/60 Sephacryl S-200 HR, 50 mM Tris-HCl, 100 mM NaCl, pH 8.5, 0.5 mL/min; molecular weight from a standard curve (Protein Standard Mix 15-600 kDa), semi-log graph
[2] = substrate: NC(=O)C[C@H](N)C(=O)O; assay: Nessler ammonia assay, Lineweaver-Burk plot; format: biochemical, Bacillus subtilis; settings: pH 9, 60 °C, 10 min, 2-14 mM substrate

Row | stoichiometry N [1] | Molecule | Km [2] [mM]
1 | 4 | L-ASNasaZP21 (N-terminally truncated type II L-asparaginase of Bacillus subtilis CH11) (from UniProt O34482 21-375) (enzyme) | –
2 | – | L-ASNasaZP21 (type II L-asparaginase, ansZP21) (Bacillus subtilis subsp. subtilis str. 168; S21P) (protein, signal peptide and Cys20 (first 60 bp) removed; E. coli BL21(DE3)pLysS; homotetramer 155 kDa; forward primer encodes …) PHSPETKESPKEKAQTQKVSSASASEKKDLPNIRILATGGTIAGADQSKTSTTEYKAGVVGVESLIEAVPEMKDIANVSGEQIVNVGSTNIDNKILLKLAKRINHLLASDDVDGIVVTHGTDTLEETAYFLNLTVKSDKPVVIVGSMRPSTAISADGPSNLYNAVKVAGAPEAKGKGTLVVLNDRIASARYVTKTNTTTTDTFKSEEMGFVGTIADDIYFNNEITRKHTKDTDFSVSNLDELPQVDIIYGYQNDGSYLFDAAVKAGAKGIVFAGSGNGSLSDAAEKGADSAVKKGVTVVRSTRTGNGVVTPNQDYAEKDLLASNSLNPQKARMLLMLALTKTNDPQKIQAYFNEY | 4.75
